2 molecules from patent publication US20120316071A1 (published 2012) can be followed below.

Where a chain is given by its changes, count along the chain named. In names and notes the source's numbering stands.

Test [1] addresses T1, rHuman IGF-1 sR, (IGF-1 sR), CF (R&D Systems Cat#391-GR) (human, UniProt P08069 31-932).
T1 construct: Bought soluble receptor; also called insulin-like growth factor-1 soluble receptor
The test is described as follows: ECL Multispot (MSD), 10 nM Fab; blank of this row 363.

For test [2], the target named is T2, rHuman EGF R/Fc Chimera, CF (R&D Systems Cat#344-ER) (human, UniProt P00533 25-645).
T2 construct: Bought reagent; also called epidermal growth factor receptor; Fc part of the bought chimera not given
Described as above.

In test [3] the target is T3, rHuman ErbB2/Fc Chimera, CF (R&D Systems Cat#1129-ER) (human, UniProt P04626 23-652).
T3 construct: Bought reagent; also called human epidermal growth factor 2 receptor; Fc part of the bought chimera not given
The description is as above.

Test [4] addresses T4, rHuman HGF R/c-MET/Fc Chimera, CF (R&D Systems Cat#358-MT/CF) (human, UniProt P08581 25-932).
T4 construct: Bought reagent; also called HGF R/Fc; hepatocyte growth factor receptor; Fc part of the bought chimera not given
The test is described as above.

Test [5] deals with T5, rHuman P-Cadherin/Fc Chimera, CF (R&D Systems Cat#861-PC) (human, UniProt P22223 108-654).
T5 construct: Bought reagent; Fc part of the bought chimera not given
The description is as above.

For test [6], the target named is T6, rHuman Erythropoietin R/Fc Chimera, CF (R&D Systems Cat#963-ER) (human, UniProt P19235 25-250).
T6 construct: Bought reagent; also called EPO R; EPO R/Fc; Fc part of the bought chimera not given
T6 sequence (looked up): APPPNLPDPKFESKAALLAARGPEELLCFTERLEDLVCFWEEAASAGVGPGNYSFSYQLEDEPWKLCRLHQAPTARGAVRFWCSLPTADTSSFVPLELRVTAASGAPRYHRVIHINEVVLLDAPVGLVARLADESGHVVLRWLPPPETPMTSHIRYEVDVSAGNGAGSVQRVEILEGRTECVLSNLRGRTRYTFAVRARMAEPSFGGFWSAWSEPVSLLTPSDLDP
The test is described as above.

In test [7] the target is T7, rHuman CD44/Fc Chimera, CF (R&D Systems Cat#3660-CD) (human, UniProt P16070 21-220).
T7 construct: Bought reagent; Fc part of the bought chimera not given
The description is as above.

Test [8] deals with T8, rHuman Notch-1/Fc Chimera, CF (R&D Systems Cat#3647-TK) (human, UniProt P46531 19-526).
T8 construct: Bought reagent; Fc part of the bought chimera not given
Described as above.

The target of test [9] is T1, rHuman IGF-1 sR, (IGF-1 sR), CF (R&D …). The experiment in a line: ECL Multispot (MSD), 10 nM Fab; blank of this row 204.
The target in test [10] is T2, rHuman EGF R/Fc Chimera, CF (R&D …). Described as above.
For test [11], the target named is T3, rHuman ErbB2/Fc Chimera, CF (R&D …). The test is described as above.
Test [12] deals with T4, rHuman HGF R/c-MET/Fc Chimera, CF (R&D …). The test is described as above.
Test [13] has as its target T5, rHuman P-Cadherin/Fc Chimera, CF (R&D …). The test is described as above.
In test [14] the target is T6, rHuman Erythropoietin R/Fc Chimera, CF …. Described as above.
In test [15] the target is T7, rHuman CD44/Fc Chimera, CF (R&D Systems …). The description is as above.
The target of test [16] is T8, rHuman Notch-1/Fc Chimera, CF (R&D …). Described as above.
The target in test [17] is T1, rHuman IGF-1 sR, (IGF-1 sR), CF (R&D …). The test is described as follows: ECL Multispot (MSD), 10 nM Fab; blank of this row 203.
In test [18] the target is T2, rHuman EGF R/Fc Chimera, CF (R&D …). The test is described as above.
Test [19] concerns the target T3, rHuman ErbB2/Fc Chimera, CF (R&D …). The test is described as above.
In test [20] the target is T4, rHuman HGF R/c-MET/Fc Chimera, CF (R&D …). Described as above.
The target of test [21] is T5, rHuman P-Cadherin/Fc Chimera, CF (R&D …). Described as above.
In test [22] the target is T6, rHuman Erythropoietin R/Fc Chimera, CF …. The test is described as above.
For test [23], the target named is T7, rHuman CD44/Fc Chimera, CF (R&D Systems …). The description is as above.
The target in test [24] is T8, rHuman Notch-1/Fc Chimera, CF (R&D …). Described as above.

T4 sequence (P08581 25-932, change not shown): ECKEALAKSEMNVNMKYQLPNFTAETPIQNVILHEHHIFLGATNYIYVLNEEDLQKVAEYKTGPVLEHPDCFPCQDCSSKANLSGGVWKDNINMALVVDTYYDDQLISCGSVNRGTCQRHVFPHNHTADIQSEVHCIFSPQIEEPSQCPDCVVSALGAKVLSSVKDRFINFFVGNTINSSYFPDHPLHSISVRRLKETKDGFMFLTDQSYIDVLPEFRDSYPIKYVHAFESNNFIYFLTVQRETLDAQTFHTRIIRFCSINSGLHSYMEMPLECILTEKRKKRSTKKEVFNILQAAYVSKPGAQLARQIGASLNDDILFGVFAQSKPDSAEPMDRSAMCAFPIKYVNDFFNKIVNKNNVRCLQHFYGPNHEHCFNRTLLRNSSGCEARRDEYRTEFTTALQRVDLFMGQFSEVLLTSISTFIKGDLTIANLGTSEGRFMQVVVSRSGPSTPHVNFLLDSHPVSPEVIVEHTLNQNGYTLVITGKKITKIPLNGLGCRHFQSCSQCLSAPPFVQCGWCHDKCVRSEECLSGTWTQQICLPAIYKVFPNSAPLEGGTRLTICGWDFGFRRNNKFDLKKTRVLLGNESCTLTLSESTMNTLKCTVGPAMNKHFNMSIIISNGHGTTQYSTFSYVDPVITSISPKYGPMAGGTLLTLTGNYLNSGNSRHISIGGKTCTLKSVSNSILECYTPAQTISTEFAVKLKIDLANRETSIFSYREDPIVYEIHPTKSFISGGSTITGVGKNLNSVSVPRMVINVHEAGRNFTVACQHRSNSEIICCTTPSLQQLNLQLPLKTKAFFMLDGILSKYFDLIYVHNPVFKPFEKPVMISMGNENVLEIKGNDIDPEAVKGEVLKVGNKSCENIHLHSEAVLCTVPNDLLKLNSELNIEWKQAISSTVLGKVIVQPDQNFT

B1: Fab VH1-46_IGHD6-6*01_IGHJ1*01 S102A/S103P/S104F (APF) & L6_IGKJ1*01 (Fab, V domains shown)
VH: QVQLVQSGAEVKKPGASVKVSCKASGYTFTSYYMHWVRQAPGQGLEWMGIINPSGGSTSYAQKFQGRVTMTRDTSTSTVYMELSSLRSEDTAVYYCAREEYAPFSAEYFQHWGQGTLVTVSS
VL: not shown
notes: Tested as Fab made in E. coli; also called H:APF & L:wt; APF triple mutant
For the molecule B1, the ECL signal amounted to 361 in test [1]; 467 in [2]; 525 in test [3]; 422 in test [4]; 305 in test [5]; 494 in [6]. Also, the ECL signal came out at 345 in test [7]; 376 in test [8]; 213 in [9]; 394 in test [10]; 302 in test [11]; 200 in test [12]. In addition, the ECL signal is 118 in test [13], 343 in test [14], 340 in [15] and 283 in test [16].

B2: Fab VH1-46_IGHD6-6*01_IGHJ1*01 S102A/S103P/S104F H111S & L6_IGKJ1*01 (Fab, V domains shown)
VH: B1 VH with H111S
VL: not shown
notes: Fab format as for m1; also called APF H111S
In the case of B2, the ECL signal in test [17] amounted to 136; in test [18] it was 286; in test [19] it was 314; in [20] it was 235; in test [21] it was 178; in [22], 277. Moreover, the ECL signal in test [23] amounted to 244; in [24], 272.
